Assay results: IntAct's records for PubMed 22653441

B1: Serine/threonine-protein kinase PAK 4 (Homo sapiens), O96013 (parent)
chain: MFGKRKKRVEISAPSNFEHRVHTGFDQHEQKFTGLPRQWQSLIEESARRPKPLVDPACITSIQPGAPKTIVRGSKGAKDGALTLLLDEFENMSVTRSNSLRRDSPPPPARARQENGMPEEPATTARGGPGKAGSRGRFAGHSEAGGGSGDRRRAGPEKRPKSSREGSGGPQESSRDKRPLSGPDVGTPQPAGLASGAKLAAGRPFNTYPRADTDHPSRGAQGEPHDVAPNGPSAGGLAIPQSSSSSSRPPTRARGAPSPGVLGPHASEPQLAPPACTPAAPAVPGPPGPRSPQREPQRVSHEQFRAALQLVVDPGDPRSYLDNFIKIGEGSTGIVCIATVRSSGKLVAVKKMDLRKQQRRELLFNEVVIMRDYQHENVVEMYNSYLVGDELWVVMEFLEGGALTDIVTHTRMNEEQIAAVCLAVLQALSVLHAQGVIHRDIKSDSILLTHDGRVKLSDFGFCAQVSKEVPRRKSLVGTPYWMAPELISRLPYGPEVDIWSLGIMVIEMVDGEPPYFNEPPLKAMKMIRDNLPPRLKNLHKVSPSLKGFLDRLLVRDPAQRATAAELLKHPFLAKAGPPASIVPLMRQNRTR

Variants of: B1
Settings: with cdc42_human CDC42, P60953
Chain of cdc42_human CDC42, P60953 (P60953 whole entry, looked up): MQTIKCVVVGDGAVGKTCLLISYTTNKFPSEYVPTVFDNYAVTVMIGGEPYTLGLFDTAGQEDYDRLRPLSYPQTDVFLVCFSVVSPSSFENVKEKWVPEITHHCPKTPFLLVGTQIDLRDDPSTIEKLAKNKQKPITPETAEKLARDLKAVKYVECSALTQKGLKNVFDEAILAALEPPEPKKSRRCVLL

Effect of a mutation on the interaction, disrupting interaction:
R48E
T60E
R49E
